Series [1] addresses phosphatase PPP3CA, Q08209.
Series [2] addresses T1, kinase MAPK3, P27361.
T1 chain: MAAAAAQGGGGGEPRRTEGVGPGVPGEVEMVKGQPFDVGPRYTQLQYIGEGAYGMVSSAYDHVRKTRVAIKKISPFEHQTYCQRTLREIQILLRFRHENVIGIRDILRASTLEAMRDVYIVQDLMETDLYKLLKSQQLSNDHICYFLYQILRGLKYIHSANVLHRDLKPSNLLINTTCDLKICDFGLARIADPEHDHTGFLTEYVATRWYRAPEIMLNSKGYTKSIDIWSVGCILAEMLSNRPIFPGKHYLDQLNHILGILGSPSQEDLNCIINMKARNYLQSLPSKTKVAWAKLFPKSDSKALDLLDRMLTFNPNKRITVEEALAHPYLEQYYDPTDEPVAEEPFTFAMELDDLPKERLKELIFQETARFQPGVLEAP

Series [3] has as its target T2, β-catenin, P35222.
T2 chain: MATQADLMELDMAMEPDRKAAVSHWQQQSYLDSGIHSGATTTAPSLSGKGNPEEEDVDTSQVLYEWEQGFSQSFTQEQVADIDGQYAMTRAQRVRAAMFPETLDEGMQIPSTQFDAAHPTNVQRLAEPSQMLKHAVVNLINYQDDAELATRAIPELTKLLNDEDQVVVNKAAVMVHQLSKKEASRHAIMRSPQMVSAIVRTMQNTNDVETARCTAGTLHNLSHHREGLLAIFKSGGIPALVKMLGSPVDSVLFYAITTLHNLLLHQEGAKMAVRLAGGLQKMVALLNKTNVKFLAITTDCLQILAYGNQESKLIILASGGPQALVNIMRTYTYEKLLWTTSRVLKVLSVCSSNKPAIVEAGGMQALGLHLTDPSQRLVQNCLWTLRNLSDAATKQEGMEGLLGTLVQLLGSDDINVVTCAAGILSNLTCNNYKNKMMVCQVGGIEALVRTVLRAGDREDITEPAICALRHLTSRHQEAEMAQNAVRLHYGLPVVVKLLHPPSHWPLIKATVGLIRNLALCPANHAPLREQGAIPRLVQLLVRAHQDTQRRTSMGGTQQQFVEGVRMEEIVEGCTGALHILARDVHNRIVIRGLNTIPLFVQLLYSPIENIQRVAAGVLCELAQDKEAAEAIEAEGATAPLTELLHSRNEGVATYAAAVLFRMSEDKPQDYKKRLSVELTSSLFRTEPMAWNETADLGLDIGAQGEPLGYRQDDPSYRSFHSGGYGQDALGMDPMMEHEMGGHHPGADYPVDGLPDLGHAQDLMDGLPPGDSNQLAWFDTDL

Series [4] has as its target protein arginine methyl transferase PRMT1, Q99873.
For series [5], the target named is p53, P04637.
In series [6] the target is T3, CDK4, P11802.
T3 chain: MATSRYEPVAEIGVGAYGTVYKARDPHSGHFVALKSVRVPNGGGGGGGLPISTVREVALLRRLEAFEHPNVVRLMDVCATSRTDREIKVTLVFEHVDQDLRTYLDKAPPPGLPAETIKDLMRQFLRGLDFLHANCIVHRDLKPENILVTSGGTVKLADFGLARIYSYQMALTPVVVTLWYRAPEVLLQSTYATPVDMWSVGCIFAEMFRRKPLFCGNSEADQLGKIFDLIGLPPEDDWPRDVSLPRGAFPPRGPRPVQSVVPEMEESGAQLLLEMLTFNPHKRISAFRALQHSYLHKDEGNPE

For series [7], the target named is T4, FAS-associated factor UbxD8, Q96CS3.
T4 chain: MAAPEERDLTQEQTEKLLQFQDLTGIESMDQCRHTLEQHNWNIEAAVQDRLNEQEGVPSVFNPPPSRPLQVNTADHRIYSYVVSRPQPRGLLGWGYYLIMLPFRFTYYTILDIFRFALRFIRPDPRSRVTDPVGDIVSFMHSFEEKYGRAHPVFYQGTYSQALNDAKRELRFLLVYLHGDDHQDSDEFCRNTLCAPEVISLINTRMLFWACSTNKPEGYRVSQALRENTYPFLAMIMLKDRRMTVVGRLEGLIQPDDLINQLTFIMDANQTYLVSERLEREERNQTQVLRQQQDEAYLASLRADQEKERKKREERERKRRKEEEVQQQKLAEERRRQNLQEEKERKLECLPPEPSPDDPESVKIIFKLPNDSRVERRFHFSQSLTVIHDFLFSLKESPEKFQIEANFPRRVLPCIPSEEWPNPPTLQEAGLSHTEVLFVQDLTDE

The target in series [8] is CDK1, P06493.
Series [9] has as its target wt UbcH7 (human E2).
The target of series [10] is T5, UV excision repair protein HHR23A (RAD23A), P54725.
T5 chain: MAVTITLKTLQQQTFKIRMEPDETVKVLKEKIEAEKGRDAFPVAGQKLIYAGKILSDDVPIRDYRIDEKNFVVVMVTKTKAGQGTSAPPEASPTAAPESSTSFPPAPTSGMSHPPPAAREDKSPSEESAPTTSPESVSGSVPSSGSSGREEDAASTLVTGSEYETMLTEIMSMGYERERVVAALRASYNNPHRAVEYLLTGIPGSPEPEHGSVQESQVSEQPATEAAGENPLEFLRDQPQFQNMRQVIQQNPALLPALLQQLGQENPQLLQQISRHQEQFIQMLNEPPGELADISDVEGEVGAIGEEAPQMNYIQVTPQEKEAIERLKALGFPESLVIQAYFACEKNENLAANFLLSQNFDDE

The target of series [11] is MAPK1, P28482.
In series [12] the target is protein Arg methyltransferase 5 (PRMT5), O14744.
Chain of protein Arg methyltransferase 5 (PRMT5), O14744 (O14744 whole entry): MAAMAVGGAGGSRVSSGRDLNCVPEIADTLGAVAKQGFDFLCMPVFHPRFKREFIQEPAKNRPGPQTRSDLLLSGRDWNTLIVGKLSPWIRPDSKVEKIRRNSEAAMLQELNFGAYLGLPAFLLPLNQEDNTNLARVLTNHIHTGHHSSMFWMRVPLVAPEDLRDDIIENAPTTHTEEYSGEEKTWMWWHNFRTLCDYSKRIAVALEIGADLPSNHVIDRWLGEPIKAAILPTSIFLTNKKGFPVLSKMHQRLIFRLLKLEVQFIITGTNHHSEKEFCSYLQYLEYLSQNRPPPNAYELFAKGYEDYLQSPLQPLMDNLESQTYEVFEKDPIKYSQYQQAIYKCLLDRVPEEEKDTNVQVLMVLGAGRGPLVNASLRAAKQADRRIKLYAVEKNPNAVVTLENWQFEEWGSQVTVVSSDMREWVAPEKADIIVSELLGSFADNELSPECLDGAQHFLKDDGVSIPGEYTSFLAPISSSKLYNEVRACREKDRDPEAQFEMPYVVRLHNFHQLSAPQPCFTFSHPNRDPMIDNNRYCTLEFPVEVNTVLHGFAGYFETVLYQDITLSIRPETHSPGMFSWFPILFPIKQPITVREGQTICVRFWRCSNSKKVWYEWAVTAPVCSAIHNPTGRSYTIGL

Chain of p53, P04637 (P04637 whole entry, looked up): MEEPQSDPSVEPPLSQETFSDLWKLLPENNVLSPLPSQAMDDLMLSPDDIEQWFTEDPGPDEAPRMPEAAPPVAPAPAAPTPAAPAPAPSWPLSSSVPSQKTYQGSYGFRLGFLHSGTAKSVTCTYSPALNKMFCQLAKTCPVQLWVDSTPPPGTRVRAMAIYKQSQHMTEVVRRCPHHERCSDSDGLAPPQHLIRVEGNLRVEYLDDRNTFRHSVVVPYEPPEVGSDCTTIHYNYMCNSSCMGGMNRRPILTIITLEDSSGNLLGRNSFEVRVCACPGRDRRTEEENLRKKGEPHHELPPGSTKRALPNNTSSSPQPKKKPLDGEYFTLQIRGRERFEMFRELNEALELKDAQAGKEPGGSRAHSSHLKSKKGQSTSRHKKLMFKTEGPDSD
Chain of protein arginine methyl transferase PRMT1, Q99873 (Q99873 whole entry, looked up): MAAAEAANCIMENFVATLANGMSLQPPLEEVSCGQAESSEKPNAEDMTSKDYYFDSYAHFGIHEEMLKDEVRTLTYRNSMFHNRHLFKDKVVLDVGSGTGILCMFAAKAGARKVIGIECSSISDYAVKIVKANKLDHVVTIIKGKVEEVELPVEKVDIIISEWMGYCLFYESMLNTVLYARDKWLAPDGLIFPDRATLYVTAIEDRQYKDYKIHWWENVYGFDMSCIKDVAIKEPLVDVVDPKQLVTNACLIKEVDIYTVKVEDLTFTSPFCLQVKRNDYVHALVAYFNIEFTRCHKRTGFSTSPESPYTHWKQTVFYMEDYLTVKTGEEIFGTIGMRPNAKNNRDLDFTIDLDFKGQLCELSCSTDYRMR
Chain of MAPK1, P28482 (P28482 whole entry): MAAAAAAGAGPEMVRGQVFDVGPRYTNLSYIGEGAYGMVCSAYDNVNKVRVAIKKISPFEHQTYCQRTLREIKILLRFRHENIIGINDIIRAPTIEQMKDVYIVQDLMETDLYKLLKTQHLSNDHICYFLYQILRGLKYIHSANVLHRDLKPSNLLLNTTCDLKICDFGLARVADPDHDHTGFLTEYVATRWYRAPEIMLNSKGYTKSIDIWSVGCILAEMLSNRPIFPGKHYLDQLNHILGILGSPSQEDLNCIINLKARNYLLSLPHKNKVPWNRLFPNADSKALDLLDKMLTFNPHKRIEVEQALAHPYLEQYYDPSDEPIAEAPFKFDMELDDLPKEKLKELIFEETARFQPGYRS
Chain of CDK1, P06493 (P06493 whole entry, looked up): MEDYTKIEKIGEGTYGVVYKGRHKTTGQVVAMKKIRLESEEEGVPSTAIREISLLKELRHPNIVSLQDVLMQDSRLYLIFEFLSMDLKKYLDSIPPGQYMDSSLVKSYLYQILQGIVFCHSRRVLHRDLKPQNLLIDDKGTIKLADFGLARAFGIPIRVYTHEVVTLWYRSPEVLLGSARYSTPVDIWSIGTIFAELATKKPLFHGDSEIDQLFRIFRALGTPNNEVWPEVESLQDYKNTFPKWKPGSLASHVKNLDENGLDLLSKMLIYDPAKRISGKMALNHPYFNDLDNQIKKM

B1: wt CHIP (full-length) (protein)
chain: MKGKEEKEGGARLGAGGGSPEKSPSAQELKEQGNRLFVGRKYPEAAACYGRAIMQQHEQALADCRRALELDGQSVKAHFFLGQCQLEMESYDEAIANLQRAYSLAKEQRLNFGDDIPSALRIAKKKRWNSIEERRIHQESELHSYLSRLIAAERERELEECQRNHEGDEDDSHVRAQQACIEAKHDKYMADMDELFSQVDEKRKKRDIPDYLCGKISFELMREPCITPSGITYDRKDIEEHLQRVGHFDPVTRSPLTQEQLIPNLAMKEVIDAFISENGWVEDY
For B1, the “in vitro substrate ubiquitination with wt UB through wt Uba1-UbcH5b-CHIP, Western blot” value in series [1] was “CHIP ubiquitination of PRMT1 and PPP3CA generated mono-ubiquitinated species”; in [2], “CHIP could poly-ubiquitinate MAPK3, β-catenin and CDK4”; in series [3], “CHIP could poly-ubiquitinate MAPK3, β-catenin and CDK4”; in [4] it was “CHIP ubiquitination of PRMT1 and PPP3CA generated mono-ubiquitinated species”; in series [6], “CHIP could poly-ubiquitinate MAPK3, β-catenin and CDK4”. Also, in [5], the “p53 ubiquitination with wt UB, Western blot” value is recorded as “p53 modification by wt UB going through the wt Uba1-UbcH5b-CHIP cascade”.

B2: wt E6AP (full-length) (protein)
chain: MKRAAAKHLIERYYHQLTEGCGNEACTNEFCASCPTFLRMDNNAAAIKALELYKINAKLCDPHPSKKGASSAYLENSKGAPNNSCSEIKMNKKGARIDFKDVTYLTEEKVYEILELCREREDYSPLIRVIGRVFSSAEALVQSFRKVKQHTKEELKSLQAKDEDKDEDEKEKAACSAAAMEEDSEASSSRIGDSSQGDNNLQKLGPDDVSVDIDAIRRVYTRLLSNEKIETAFLNALVYLSPNVECDLTYHNVYSRDPNYLNLFIIVMENRNLHSPEYLEMALPLFCKAMSKLPLAAQGKLIRLWSKYNADQIRRMMETFQQLITYKVISNEFNSRNLVNDDDAIVAASKCLKMVYYANVVGGEVDTNHNEEDDEEPIPESSELTLQELLGEERRNKKGPRVDPLETELGVKTLDCRKPLIPFEEFINEPLNEVLEMDKDYTFFKVETENKFSFMTCPFILNAVTKNLGLYYDNRIRMYSERRITVLYSLVQGQQLNPYLRLKVRRDHIIDDALVRLEMIAMENPADLKKQLYVEFEGEQGVDEGGVSKEFFQLVVEEIFNPDIGMFTYDESTKLFWFNPSSFETEGQFTLIGIVLGLAIYNNCILDVHFPMVVYRKLMGKKGTFRDLGDSHPVLYQSLKDLLEYEGNVEDDMMITFQISQTDLFGNPMMYDLKENGDKIPITNENRKEFVNLYSDYILNKSVEKQFKAFRRGFHMVTNESPLKYLFRPEEIELLICGSRNLDFQALEETTEYDGGYTRDSVLIREFWEIVHSFTDEQKRLFLQFTTGTDRAPVGGLGKLKMIIAKNGPDTERLPTSHTCFNVLLLPEYSSKEKLKERLLKAITYAKGFGML
Take B2: the “in vitro substrate ubiquitination with wt UB through Uba1-UbcH7-E6AP, Western blot” value in series [7] was “MAPK1, PRMTS, and UbxD8 mainly generated species with one or two conjugated UBs”; in [8], “CDK1, CDK4 and β-catenin were strongly ubiquitinated by E6AP with the formation of high molecular weight bands”; in series [3], “CDK1, CDK4 and β-catenin were strongly ubiquitinated by E6AP with the formation of high molecular weight bands”; in series [10], “E6AP-catalyzed ubiquitination of HHR23A, a previously identified E6AP substrate, was confirmed”; in [11], “MAPK1, PRMTS, and UbxD8 mainly generated species with one or two conjugated UBs”; in series [12], “MAPK1, PRMTS, and UbxD8 mainly generated species with one or two conjugated UBs”. In addition, the “in vitro substrate ubiquitination with wt UB through Uba1-UbcH7-E6AP, Western blot” value in series [6] is “CDK1, CDK4 and β-catenin were strongly ubiquitinated by E6AP with the formation of high molecular weight bands”. For the same protein, the “full-length E6AP auto-ubiquitination with wt UB, Western blot” value in [9] was “wt E6AP can be auto-ubiquitinated by the wt Uba1-UbcH7 pair”. In addition, the “p53 ubiquitination in the presence of E6, Western blot” value in series [5] is “p53 can be efficiently ubiquitinated by wt UB through the wt Uba1-UbcH7-E6AP cascade in the presence of E6”.

Source of the values: patent US20200199576.
